These results are taken from publication PMC3711453.

Where two headings read alike, the source gives them in different places.

The target in series [1] is T1, His6-MTSF1 (lacking first 146 aa) (Arabidopsis thaliana? (Arabidopsis, …, UniProt Q9M9X9 147-987)).
T1 sequence: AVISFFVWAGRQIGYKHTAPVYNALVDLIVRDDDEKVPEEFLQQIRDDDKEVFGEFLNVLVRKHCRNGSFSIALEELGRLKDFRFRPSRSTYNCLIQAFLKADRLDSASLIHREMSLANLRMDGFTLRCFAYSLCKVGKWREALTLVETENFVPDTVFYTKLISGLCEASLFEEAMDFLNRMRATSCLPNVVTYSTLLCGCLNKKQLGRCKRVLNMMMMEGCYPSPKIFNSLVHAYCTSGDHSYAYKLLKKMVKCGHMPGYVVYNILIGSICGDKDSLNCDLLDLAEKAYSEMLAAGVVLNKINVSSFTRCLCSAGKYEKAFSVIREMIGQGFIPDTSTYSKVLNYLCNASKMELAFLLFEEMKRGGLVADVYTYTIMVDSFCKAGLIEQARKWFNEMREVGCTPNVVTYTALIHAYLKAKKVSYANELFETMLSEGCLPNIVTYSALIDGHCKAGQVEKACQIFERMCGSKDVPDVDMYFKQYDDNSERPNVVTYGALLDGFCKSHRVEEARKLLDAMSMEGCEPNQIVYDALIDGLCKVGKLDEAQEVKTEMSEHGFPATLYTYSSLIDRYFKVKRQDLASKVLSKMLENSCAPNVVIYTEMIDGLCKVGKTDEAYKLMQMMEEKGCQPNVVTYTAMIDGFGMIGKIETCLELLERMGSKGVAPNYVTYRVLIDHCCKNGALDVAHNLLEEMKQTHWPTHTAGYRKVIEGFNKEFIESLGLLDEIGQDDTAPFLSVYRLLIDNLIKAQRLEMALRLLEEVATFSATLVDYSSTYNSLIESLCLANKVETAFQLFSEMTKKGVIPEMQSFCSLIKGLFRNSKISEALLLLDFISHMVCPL
Nature of the series: EMSA.

Series [2] addresses T1, His6-MTSF1 (lacking first 146 aa). Nature of the series: EMSA. This is another data set of the same source.

B1: 3'ND4-2 (last 20 nt of nad4 coding sequence) (ssRNA)
RNA: AACAUGGCAAAUUUCAUUGA
For B1, the binding result in series [1] was “no binding”.

B2: 3'ND4-4 (30 nt downstream of nad4 mRNA 3' end) (ssRNA)
RNA: CAACAUCUUAAUGUGUAUUUGAGGAUAUUU
Consider B2, for which the binding result in series [1] is “no binding”.

B3: 3'ND4-1 (entire nad4 3' UTR, 30 nt) (ssRNA)
RNA: GAGGAAUCAGCAAAGAAAAGAAAAACGGGU
Consider B3, for which the binding result in series [1] was “binds”.

B4: 3'ND4-3 (last 20 nt of nad4 3' UTR) (ssRNA)
RNA: CAAAGAAAAGAAAAACGGGU
As for B4, in series [2], the binding result was “binds”.
